Laboratory results taken from paper PMC11183095 (2024).

Target: Recombinant His-PGAM1 (human, UniProt P18669 1-254)
Assay: BLI

Chain of Recombinant His-PGAM1 (P18669 whole entry): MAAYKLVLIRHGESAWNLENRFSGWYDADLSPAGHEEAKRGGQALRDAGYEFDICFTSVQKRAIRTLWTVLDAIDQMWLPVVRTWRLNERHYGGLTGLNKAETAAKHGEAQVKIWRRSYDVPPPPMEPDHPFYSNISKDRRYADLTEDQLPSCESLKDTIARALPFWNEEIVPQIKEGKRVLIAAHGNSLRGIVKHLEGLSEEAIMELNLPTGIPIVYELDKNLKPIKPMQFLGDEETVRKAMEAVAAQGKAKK

Kd: 2240 nM
B1: Recombinant GST-PKM2 (enzyme)
chain: not shown
